Results as given in patent US7064106B2, “Gene and use thereof” (Takeda Chemical Industries, Ltd., priority 1999, dated 2006).

Key:
Type in all cases: cell-based
profilin IIL = target: T1, profilin IIL (Homo sapiens, UniProt P35080); experiment: Yeast two-hybrid HIS3 growth test, MD36 and profilin family; settings: S. cerevisiae Y190; 40 mM 3-amino-1,2,4-triazole
T1 construct: expressed in transfected cells; host or cells: Saccharomyces cerevisiae Y190
T1 sequence (P35080 1-140): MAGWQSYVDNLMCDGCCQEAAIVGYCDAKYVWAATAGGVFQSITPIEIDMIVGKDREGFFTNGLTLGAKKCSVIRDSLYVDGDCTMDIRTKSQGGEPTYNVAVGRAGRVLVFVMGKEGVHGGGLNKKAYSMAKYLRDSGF
Experimental: Using as a template human skeletal muscle-derived cDNA and as an enzyme Pfu polymerase (STRATAGENE), the reaction was carried out at 95° C. for 30 seconds, at 65° C. for 45 seconds and at 72° C. for 60 seconds, for 35 cycles. As a result of PCR, the DNA fragment of 745 bp was found, in addition to the DNA fragment of 423 bp or profilin II, and named profilin IIL. The base sequence for cDNA of profilin IIL is shown by SEQ ID NO:29, and the amino acid sequence of profilin II is shown by SEQ ID NO:28.
The protein-protein interaction between MD36 and the profilin family was detected by the yeast two-hybrid system. Based on pGBT9 (CLONTECH), expression plasmids were constructed to express the coding regions of profiling I (Evangelista et al., Science, 276, 118–122, 1997; Imamura et al., EMBO J., 16, 2745–2755, 1997; Tanaka, Biochem. Biophys. Res. Commun., 267, 479–481, 2000), profilin II (Schluter et al., Biohim. Biophys. Acta, 1359, 97–109, 1997), and profiling IIL in the form fused to yeast GAL4-DNA-binding domain protein under control of yeast ADH1 promoter. These plasmids were named pG-PFNI, pG-PFNII and pG-PFNIII, respectively (yeast selection marker was TRP1). […]

[1] = target: T2, C-terminal cytoplasmic domain (amino acid numbers 468–510) of mouse GLUT4 (Mus musculus, UniProt P14142); experiment: Yeast two-hybrid β-galactosidase assay, interaction with glucose transporter; settings: bait mouse GLUT4 (468–510); prey human MD36 cDNA 2995–3674 fused to GAL4-AD
T2 construct: amino acid numbers 468–510; expressed in transfected cells; host or cells: Saccharomyces cerevisiae Y190
T2 sequence (P14142 467-509): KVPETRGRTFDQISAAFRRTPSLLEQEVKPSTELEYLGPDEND
Experimental: (§1) As the bait sequence, the C-terminal cytoplasmic domain (amino acid numbers 468–510; SEQ ID NO:13 and SEQ ID NO:14) of mouse GLUT4 was used. For control, similar procedures were performed using the C-terminal cytoplasmic domain (amino acid numbers 451–492) of mouse GLUT1, which is the other protein of glucose transporters. These sequences were isolated from the respective cDNAs by PCR using pfu polymerase (manufactured by Stratagene, Inc.) and constructed to be expressed as the fusion proteins in the GAL4-BD sequence of pGBT9 (manufactured by Clontech, Inc.). On the other hand, human MD36 cDNA (base numbers 2995–3674 in SEQ ID NO:3) fused to GAL4-AD was used as the prey sequence. S. Cerevisiae Y190 was transformed by these plasmids, and the binding activity of MD36 to each of the glucose transporters was assayed in terms of the β-galactosidase activity.

[2] = target: T3, C-terminal cytoplasmic domain (amino acid numbers 451–492) of mouse GLUT1 (Mus musculus, UniProt P17809); experiment: as above; settings: bait mouse GLUT1 (451–492); prey human MD36 cDNA 2995–3674 fused to GAL4-AD
T3 construct: the C-terminal cytoplasmic domain (amino acid numbers 451–492) of mouse GLUT1; expressed in transfected cells; host or cells: Saccharomyces cerevisiae Y190
T3 sequence (P17809 451-492): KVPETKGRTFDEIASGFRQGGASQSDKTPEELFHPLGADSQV
Experimental: as §1

profilin I = experiment: Yeast two-hybrid HIS3 growth test, MD36 and profilin family; settings: S. cerevisiae Y190; 40 mM 3-amino-1,2,4-triazole
Excerpt: (§2) The protein-protein interaction between MD36 and the profilin family was detected by the yeast two-hybrid system. Based on pGBT9 (CLONTECH), expression plasmids were constructed to express the coding regions of profiling I (Evangelista et al., Science, 276, 118–122, 1997; Imamura et al., EMBO J., 16, 2745–2755, 1997; Tanaka, Biochem. Biophys. Res. Commun., 267, 479–481, 2000), profilin II (Schluter et al., Biohim. Biophys. Acta, 1359, 97–109, 1997), and profiling IIL in the form fused to yeast GAL4-DNA-binding domain protein under control of yeast ADH1 promoter. These plasmids were named pG-PFNI, pG-PFNII and pG-PFNIII, respectively (yeast selection marker was TRP1). On the other hand, expression plasmids that express the full-length sequence (SEQ ID NO:1) of MD36, which is IRAP-BP protein, or the coding region from this N-terminus to the sequence (SEQ ID NO:33) including the proline-rich domain in the form fused to yeast […] activated domain protein under control of yeast ADH1 promoter was constructed based on pACT2 (CLONTECH), and named pACT-MD36 and pACT-MD36NT, respectively (yeast selection marker was LEU2). pG-PFNI, pG-PFNII, pG-PFNIII or, pGBT9 for control was co-transfected to yeast Saccharomyces cerevisiae Y190 together with pACT-MD36 or pACT-MD36NT, and yeast strains bearing plasmids from the two were selected on SD medium free of tryptophan and leucine. S. cerevisiae Y190 is originally a histidine auxotrophic strain but when the introduced proteins on the plasmids show the interactions, reporter gene HIS3 is expressed and the strain becomes capable of growing on a histidine-free plate. The yeast strain acquired was spread on tryptophan, leucine and histidine-free SD medium supplemented with 40 mM 3-amino-1,2,4-triazole.

profilin II = target: T4, profilin II (Homo sapiens, UniProt P35080); experiment: as above; settings: S. cerevisiae Y190; 40 mM 3-amino-1,2,4-triazole
T4 construct: expressed in transfected cells; host or cells: Saccharomyces cerevisiae Y190
T4 sequence (P35080 1-140 isoform P35080-2): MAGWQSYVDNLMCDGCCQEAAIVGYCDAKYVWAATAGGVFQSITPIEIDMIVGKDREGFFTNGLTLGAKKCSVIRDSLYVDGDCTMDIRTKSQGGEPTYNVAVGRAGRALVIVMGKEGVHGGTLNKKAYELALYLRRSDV
Excerpt: as §2

B1: MD36: human skeletal muscle-derived IRAP binding protein, SEQ ID NO:1; C-terminal part (bases 2995–3674) used in binding tests (protein, listed as Homo sapiens)
chain: MAGGEDRGDGEPVSVVTVRVQYLEDTDPFACANFPEPRRAPTCSLDGALPLGAQIPAVHRLLGAPLKLEDCALQVSPSGYYLDTELSLEEQREMLEGFYEEISKGRKPTLILRTQLSVRVNAILEKLYSSSGPELRRSLFSLKQIFQEDKDLVPEFVHSEGLSCLIRVGAAADHNYQSYILRALGQLMLFVDGMLGVVAHSDTIQWLYTLCASLSRLVVKTALKLLLVFVEYSENNAPLFIRAVNSVASTTGAPPWANLVSILEEKNGADPELLVYTVTLINKTLAALPDQDSFYDVTDALEQQGMEALVQRHLGTAGTDVDLRTQLVLYENALKLEDGDIEEAPGAGGRRERRKPSSEEGKRSRRSLEGGGCPARAPEPGPTGPASPVGPTSSTGPALLTGPASSPVGPPSGLQASVNLFPTISVAPSADTSSERSIYKLHQTASVWAPESPPVPQSPPGQARLEARFLENVAAAETEKQVALAQGRAETLAGAMPNEAGGHPDARQLWDSPETAPAARTPQSPAPCVLLRAQRSLAPEPKEPLIPASPKAEPIWELPTRAPRLSIGDLDFSDLGEDEDQDMLNVESVEAGKDIPAPSPPLPLLSGVPPPPPLPPPPPIKGPFPPPPPLPLAAPLPHSVPDSSALPTKRKTVKLFWRELKLAGGHGVSASRFGPCATLWASLDPVSVDTARLEHLFESRAKEVLPSKKAGEGRRTMTTVLDPKRSNAINIGLTTLPPVHVIKAALLNFDEFAVSKDGIEKLLTMMPTEEERQKIEEAQLANPDIPLGPAENFLMTLASIGGLAARLQLWAFKLDYDSMEREIAEPLFDLKVGMEQLVQNATFRCILATLLAVGNFLNGSQSSGFELSYLEKVSEVKDTVRRQSLLHHLCSLVLQTRPESSDLYSEIPALTRCAKVDFEQLTENLGQLERRSRAAEESLRSLAKHELAPALRARLTHFLDQCARRVAMLRIVHRRVCNRFHAFLLYLGYTPQAAREVRIMQFCHTLREFALEYRTCRERVLQQQQKQATYRERNKTRGRMITETEKFSGVAGEAPSNPSVPVAVSSGPGRGDADSHASMKSLLTSRPEDTTHNRRSRGMVQSSSPIMPTVGPSTASPEEPPGSSLPSDTSDEIMDLLVQSVTKSSPRALAARERKRSRGNRKSLRRTLKSGLGDDLVQALGLSKGPGLEV
growth of yeast on tryptophan, leucine and histidine-free SD medium (profilin IIL): Growth of the yeast was noted | binding activity of MD36 to glucose transporter in terms of β-galactosidase activity [1]: bound | binding activity of MD36 to glucose transporter in terms of β-galactosidase activity [2]: scarcely bound | growth of yeast on tryptophan, leucine and histidine-free SD medium (profilin I): did not grow | growth of yeast on tryptophan, leucine and histidine-free SD medium (profilin II): did not grow
